Tested on: T1, MKI-EGFP fusion protein
T1 sequence: FPLKRHDKVDDLSK

Row | Substance | phosphorylation of acetyl-CoA carboxylase (ACC) by AMPK in rat hippocampal neurons, pACC (Ser79) antibody | phosphorylation of endogenous tau at the 12E8 sites in rat hippocampal neurons, Western blot | phosphorylation of transfected HA-tagged human tau at the 12E8 sites in rat hippocampal neurons, immunostaining
1 | AMP-activated kinase (AMPK) | MKI-EGFP did not affect the phosphorylation of acetyl-CoA carboxylase (ACC) by AMP-activated kinase (AMPK) | – | –
2 | MARK4 (PAR-1/MARK kinases) acting on tau in rat hippocampal neurons | – | expression of an MKI-GFP fusion protein in rat hippocampal neurons effectively attenuated MARK4-mediated phosphorylation of both endogenous tau (FIG. 3A) and transfected human tau at the 12E8 sites (FIG. 3B) | expression of an MKI-GFP fusion protein in rat hippocampal neurons effectively attenuated MARK4-mediated phosphorylation of both endogenous tau (FIG. 3A) and transfected human tau at the 12E8 sites (FIG. 3B)
